Data on 31 sequences can be found in the supplement of paper PMC9170038.

The subject of this data set is MS2 coat protein. As to the kind of experiment: apparent KD of MS2 coat protein; designed switch direction (-1 OFF switch, 1 ON switch): -1; higher = weaker reporter binding. An outline of the steps: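 Normalised cluster fluorescence was curve-fitted, and each design's median over clusters is its apparent KD. Before this, SNAP-549-labelled MS2 coat protein was titrated from 0.7 or 1.5 nM, doubling to 3 µM, over RNA switches transcribed on Illumina chips by stalled E. coli RNA polymerase. Titrations had no input, 200 uM small-molecule ligand, or an oligonucleotide input, and steps lasted 0.8–1.5 h (lowest) to 10–20 min (highest).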

[1] abbreviates: input ligand: microRNA oligo, concentration not stated.
The mark [2] stands for this setting: Eterna round: R95, input ligand: FMN 200 uM.
[3] abbreviates: Eterna round: R95, input ligand: microRNA oligo, concentration not stated.
[4] abbreviates: Eterna round: R95, input ligand: none.

“UUGAAGUCAUCAGGAUAUAGUAUUAAAGACAUUUAUAUUUUCAAACAUGAGGAUCACCCAUGUCGCUAGAAGGGAUUAUAGAUU [JR_ExcNG2_Sub080] (Eterna round: R96, puzzle: Exclusion NG 2)”: under setting [1], the “apparent KD of MS2 coat protein” value turned out to be 0.0366 µM.
With “ACAUGAGGAUCACCCAUGUAAUCAUGAUGGCUGAUGUAGAGCUAGGAUAUGAGUGGCUUUCUAUCUCAGAAGGAGCUUGACUGG [Deportation 42 - Jieux - Exclusion NG 3] (Eterna round: R96, puzzle: Exclusion NG 3)”, the “apparent KD of MS2 coat protein” value (input ligand: FMN 200 uM) came to 0.0289 µM, the “apparent KD of MS2 coat protein” value under setting [1] was 0.0255 µM and the “apparent KD of MS2 coat protein” value (input ligand: none) is 0.0372 µM.
Regarding “GCACAUGAGGAUCACCCAUGUCAAUGGGAAUUCCUUCUUCAACAGGAUAUCCGAUGGAGAACGUCGGAGAAGGGUUCGCCAGUA [Eternabot solution 15] (Eterna round: R96, puzzle: Exclusion NG 3)”, the “apparent KD of MS2 coat protein” value was found to be 0.0314 µM (input ligand: FMN 200 uM), 0.0195 µM under setting [1] and 0.0257 µM (input ligand: none).
As to “CUCCUCGUGGCGCCUAAACACAUGAGGAUCACCCAUGUACAGGCUUUUUGCCGUCUUAUAAUAAAACCGAGGAGACG [Ataesarxe] (puzzle: Sensor v3, turn-off variant 1)”, the “apparent KD of MS2 coat protein” value under setting [2] was 0.0166 µM, the “apparent KD of MS2 coat protein” value under setting [3] stood at 0.0188 µM and the “apparent KD of MS2 coat protein” value under setting [4] was 0.0166 µM.
As for “AAAAGGUCAGGAUAUUCAAGAAAAGAAAAGAAAAGAAAAGAGAAGAAGGGACAUGAGGAUCACCCAUGUAAAAG [Default title] (puzzle: Exclusion 4)”, the “apparent KD of MS2 coat protein” value under setting [2] came out at 0.0249 µM, the “apparent KD of MS2 coat protein” value under setting [3] worked out at 0.0189 µM and the “apparent KD of MS2 coat protein” value under setting [4] is 0.0135 µM.
The like results for “AGUAGAUCUACGCUUGCGUGGAUCUGCAAUGCAAGUGUAACAUGAGGAUCACCCAUGUCCUCAUUUGCUCGUCUUAU [JL turnoff v2 99.03] (puzzle: Sensor v3, turn-off variant 2)” were, in that order, 0.0468 µM, 0.275 µM and 0.0488 µM.
“UAUCAGCAAGUGAGGAUAUAGAGAACGGUUGUUGGCUAGAAGGCACUUGAGGAUCACCCAAGUCGCAAAGUGGC [Mamausonbe] (Eterna round: R97, puzzle: Brourd's mod of Exclusion 4)”: the “apparent KD of MS2 coat protein” value by setting is: (input ligand: FMN 200 uM) 0.134 µM; (input ligand: none) 0.0293 µM.
“AGCUGUGGCCGAGGAUAUCUCAUAGUCCCAACCGAAAUAUAAUCGGACAUGAGGAUCACCCAUGUAGAGAAGGCGGUCUCAGCA [Eli eng2 - 071] (Eterna round: R96, puzzle: Exclusion NG 2)”: the “apparent KD of MS2 coat protein” value (input ligand: FMN 200 uM) was 0.115 µM, the “apparent KD of MS2 coat protein” value under setting [1] is 0.0407 µM and the “apparent KD of MS2 coat protein” value (input ligand: none) was 0.151 µM.
Take “GAUUAACAUGAGGAUCACCCAUGUGAGGAUAUGGACUUGCCCACUUACCCAUUAGAGUCUAGAAGGCGCAUCUC [1986#2\9] (Eterna round: R97, puzzle: Exclusion 1)”: the “apparent KD of MS2 coat protein” value is 0.0257 µM (input ligand: FMN 200 uM) and 0.0253 µM (input ligand: none).
“UUUUUCUCAGGAUAUACAUGAGGAUCACCCAUGUAUAUUAAUGGUAAUACAUGGGAAUGUAGAAGGGAGCUCAU [Omei Ex3 Pseudoloop 15] (Eterna round: R97, puzzle: Exclusion 3)”: the “apparent KD of MS2 coat protein” value by setting is: (input ligand: FMN 200 uM) 0.112 µM; (input ligand: none) 0.122 µM.
As to “UUAUACGUUGAGGAUAUGCGAAUUAGUAUAGUUGCAGAAGGCGAUACAUGAGGAUCACCCAUGUUUAUGGGCAU [LRO-Ex6-06] (puzzle: Exclusion 6)”, the “apparent KD of MS2 coat protein” value under setting [3] stood at 0.152 µM.
As to “UUGUACAUAGGAUAUAGUUGUUUCUACAUGAGGAUCACCCAUGUUAUUCCUCUCUCCCUUCUAGAAGGAUGUUUUU [JR_E5_Sub006] (puzzle: Exclusion 5)”, the “apparent KD of MS2 coat protein” value under setting [3] worked out at 0.0436 µM.
On to “AAGAAACAUGAGGAUCACCCAUGUGAGGAUAUGUAAAAUAAAAGAAAAGAAAUAAUAAACAGAAGGCACAAAGG [Mat - Mod of Hog D15] (puzzle: Exclusion 1)”, for which the “apparent KD of MS2 coat protein” value is, setting by setting: under setting [2], 0.0521 µM; under setting [3], 0.0309 µM; under setting [4], 0.0414 µM.
On to “ACAUGAGGAUCACCCAUGUAAACAUAAUGGCUCAUGUAGAGUCAGGAUAUGCGUGGCGAACAAUCGCAGAAGGGACAAGACUGG [Deportation 28 - Jieux - Exclusion NG 3] (Eterna round: R96, puzzle: Exclusion NG 3)”, for which the “apparent KD of MS2 coat protein” value came out at 0.0292 µM (input ligand: FMN 200 uM), 0.0199 µM under setting [1] and 0.0278 µM (input ligand: none).
As for “UUUUAACAUGAGGAUCACCCAUGUGAGGAUAUCGAAAUUUAUAUUAAUAUUUAUAUAACGAGAAGGCACAUUUU [JMF 55] (puzzle: Exclusion 1)”, the “apparent KD of MS2 coat protein” value under setting [3] is 0.0653 µM.
Turning to “AAUUCACAUGAGGAUCACCCAUGUCAGGAUAUGCUGACGCGGGUUUCGGUGCGUGUUGGCAGAAGGGACAGCUA (puzzle: Exclusion 1)”, under setting [3], the “apparent KD of MS2 coat protein” value was 0.144 µM.
For “GAUUACUGCAAGCUUUGGGACAUGAGGAUCACCCAUGUUCGUCUUAUUGAUCUAGGUACGCUGACGUACCUAGAUCU [JL-sv1-2.28 Brourd mod] (puzzle: Sensor v3, turn-off variant 1)”, the “apparent KD of MS2 coat protein” value reads like this: under setting [2], 0.0158 µM; under setting [3], 0.026 µM; under setting [4], 0.0141 µM.
Turning to “AAAGAGCAAGGAUAUACAUGAGGAUCACCCAUGUAGUACGUGAACCAGGUUUUCCUGAGUAGAAGGUGCAGACA [Dibira] (puzzle: Exclusion 3)”, under setting [3], the “apparent KD of MS2 coat protein” value turned out to be 0.0281 µM.
On to “GCACGGUUGGUAGGAUAUCCUUGCGAUUAGCAAGGAGAAGGACCACAUGAGGAUCACCCAUGUACCUCAAUUAUCCUUCCGUGC [Eli exng1 - 025] (Eterna round: R96, puzzle: Exclusion NG 1)”, for which the “apparent KD of MS2 coat protein” value was 0.0137 µM (input ligand: FMN 200 uM), 0.0109 µM under setting [1] and 0.0149 µM (input ligand: none).
For “UACAUGAGGAUCACCCAUGUUUUGUCGUGUAUGGUAUUUAUCUAGGAUAUCAGUUUAUUUAUUUAUGAGAAGGAGAAUAUUAAU [JMF's solution 7] (Eterna round: R96, puzzle: Exclusion NG 3)”, in that order: 0.028 µM, 0.0224 µM and 0.0327 µM.
In the case of “AACAACGUAGGAUAUGCAGCUACGGACUUGAGGAUCACCCAAGUGAUCAUAGCCCGUAUAGCAGAAGGGCGGAUCA [Arontebi] (Eterna round: R97, puzzle: Exclusion 5)”, the “apparent KD of MS2 coat protein” value (input ligand: FMN 200 uM) is 0.321 µM and the “apparent KD of MS2 coat protein” value (input ligand: none) is 0.224 µM.
Regarding “ACAACAAGCUUUUUGAACGUAGAACAUGCAGCUCUAGUCACAUGAGGAUCACCCAUGUCAGCCAGUUAGAUAGGUGA [JR_SV3TOV2_Sub066] (puzzle: Sensor v3, turn-off variant 2)”, the “apparent KD of MS2 coat protein” value is, setting by setting: under setting [2], 0.0936 µM; under setting [3], 0.126 µM; under setting [4], 0.127 µM.
As for “AACGUGGCUUAGGAUAUUGCUACGCAAAAGUAACAAGAAGGAGGCACAUGAGGAUCACCCAUGUGAUUCGUUGA [Ineror] (puzzle: Exclusion 6)”, the “apparent KD of MS2 coat protein” value under setting [3] is 0.0148 µM.
“AAUGAUUGACGAGGAUAUUGUGUUAGAUCACGACGAGAAGGCGUUUGUCACAUGAGGAUCACCCAUGUGAGCCUUGUGGAUAGA [Ex NG1 #76] (Eterna round: R96, puzzle: Exclusion NG 1)”: the “apparent KD of MS2 coat protein” value was determined as 0.0566 µM (input ligand: FMN 200 uM), 0.0156 µM under setting [1] and 0.0215 µM (input ligand: none).
In the case of “UUUUUUGUUGUGAGGAUAUCGUAGUUAUUUUGUUACGAGAAGGCACAUGAGGAUCACCCAUGUUUUUUGAUGUU [JR_BMOE4_Sub064] (puzzle: Brourd's mod of Exclusion 4)”, the “apparent KD of MS2 coat protein” value under setting [3] amounted to 0.0254 µM.
For the sequence “AGUACUAACACGAUAGUGUUAGUACUAUAAGCUUGUGUUACAUGAGGAUCACCCAUGUCCUCAUAAGCUCGUCUUAA [Mat - Sensor v3 - Turn-off var 2 - D65] (puzzle: Sensor v3, turn-off variant 2)”, the “apparent KD of MS2 coat protein” value under setting [2] was determined as 0.0369 µM, the “apparent KD of MS2 coat protein” value under setting [3] amounted to 0.42 µM and the “apparent KD of MS2 coat protein” value under setting [4] was found to be 0.0381 µM.
Turning to “GGUCAGACGGUAGGAUAUCCAUAUCGAGUGACCCUUUCAUAACAUGAGGAUCACCCAUGUCGGUGGGAGAAGGGCCGUACGGCG [salish99_ExNG02_R04_001] (Eterna round: R96, puzzle: Exclusion NG 2)”, the “apparent KD of MS2 coat protein” value amounted to 0.146 µM (input ligand: FMN 200 uM), 0.0704 µM under setting [1] and 0.0632 µM (input ligand: none).
Take “UUUUUAUAUGAAGGAUAUACUUAACAUGAGGAUCACCCAUGUGGUGUUGUGAGUGAGUGAGUUUAGUAGAAGGUCAAUUCUCUU [JMF's solution 81] (Eterna round: R96, puzzle: Exclusion NG 2)”: the “apparent KD of MS2 coat protein” value (input ligand: FMN 200 uM) amounted to 0.989 µM, the “apparent KD of MS2 coat protein” value under setting [1] turned out to be 0.156 µM and the “apparent KD of MS2 coat protein” value (input ligand: none) turned out to be 0.492 µM.
For “AAAACGGCAGGAUAUACAUGAGGAUCACCCAUGUGAAAUAAAAUAAAAUAAAAUAAAAGUAGAAGGGCCAAAAA [Exclusion 3 #3] (puzzle: Exclusion 3)”, the “apparent KD of MS2 coat protein” value reads like this: under setting [2], 0.0404 µM; under setting [3], 0.0407 µM; under setting [4], 0.0586 µM.
As for “UUAUUAUAUGUAGGAUAUGCGUAUUAUUGUUAUGCAGAAGGACAUGAGGAUCACCCAUGUAUAUUAUUGUUAUAUAUUAUAUGU [Title] (Eterna round: R96, puzzle: Exclusion NG 1)”, the “apparent KD of MS2 coat protein” value reads like this: (input ligand: FMN 200 uM) 0.11 µM; under setting [1], 0.0266 µM; (input ligand: none) 0.0303 µM.
For “CAAUUCCGAGGAUAUACAUGAGGAUCACCCAUGUCGGGCCUCAGCGUUUAGCGCCUAAGUAGAAGGUGGGUUUC [JL Riri mod 4] (Eterna round: R96, puzzle: Exclusion 3)”, in that order: 0.0471 µM, 0.0317 µM and 0.0466 µM.
